System: MS2 coat protein
Experiment: apparent KD of MS2 coat protein; designed switch direction (-1 OFF switch, 1 ON switch): 1; higher = weaker reporter binding
In short: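 SNAP-549-labelled MS2 coat protein was titrated, doubling from 0.7 or 1.5 nM to 3 µM, over designed RNA switches transcribed on Illumina chips by stalled E. coli RNA polymerase. Runs were done without input, with 200 uM small-molecule ligand, or with an oligonucleotide input. Apparent KD is the per-design median over clusters of curve-fitted normalised fluorescence.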

[1] = input ligand: microRNA oligo, concentration not stated
[2] = Eterna round: R95, input ligand: FMN 200 uM
[3] = Eterna round: R95, input ligand: microRNA oligo, concentration not stated
[4] = Eterna round: R95, input ligand: none

Sequence	apparent KD of MS2 coat protein (input ligand: FMN 200 uM) [nM]	apparent KD of MS2 coat protein [1] [nM]	apparent KD of MS2 coat protein (input ligand: none) [nM]	apparent KD of MS2 coat protein [2] [nM]	apparent KD of MS2 coat protein [3] [nM]	apparent KD of MS2 coat protein [4] [nM]
AGGACGAGCACAGGAUAUCCGUGGAACAGACACGGAGAAGGGUGAAGUCAUGGAAAGAAAAGACAUGAGGAUCACCCAUGUAAA [Eszaonin] (Eterna round: R96, puzzle: Same State NG 1)	132	61.3	310			
AGGCCACCGGAAGGAUAUGGCACCUUAUUGGUGCCAGAAGGUCCAACAUGAGGAUCACCCAUGUGGGUGGGUUCUAAUGAACAU [Fiskers NG1 - 2] (Eterna round: R96, puzzle: Same State NG 1)	76.5	37.6	47.9			
AGGGAGGAGGCUGAGGAUAUCGUAAGGAGGACAUGAGGAUCACCCAUGUGUAUAGGAUUGGAGGACGAGAAGGCAGAGGAGUGGG [JR_SS2_Sub050] (puzzle: Same State 2)				41.1	26.6	28.9
AGGGUCGUGCUAGGAUAUCUAGGAUAUGGACGAGGAUUACCCGAGCAGCAUUAGCGCACCAGAGGAGAGAAGGAGCGUGAUGCG [pwkr ssNG2 2F5 2FMN.10] (Eterna round: R96, puzzle: Same State NG 2)	329	2.76	63.7			
AGUAGUGUAACAUGAGGAUCACCCAUGUAAGAAUAUGUAACCUAGGAUAUGGAGGUUAUGUUUGACCAGAAGGAGGAUUGUUUA [JR_SSNG3_Sub041] (Eterna round: R96, puzzle: Same State NG 3)	27	20.3	25.9			
AGUCCAGCAUAAGCUGGACAAAAGCAUGUACAUGAGGAUCACCCAUGUUCAUGUACAAGCUUUUUGCUCGUCAAAAG [Mat - hsa-mir-208a - Mod of JL - 71] (puzzle: Sensor for hsa-mir-208a)				215	22.6	297
AGUCCAGCCAGAGCUGGACAAAAGCAUGUACAUGAGGAUCACCCAUGUCAUGUACAAGCUUUUUGCUCGUCUUAAAA [Mat - hsa-mir-208a - Mod of JL - D2] (puzzle: Sensor for hsa-mir-208a)				415	13.7	523
AGUCCAGCCAGAGCUGGACAAAAGCAUGUACAUGAGGAUCACCCAUGUUCAUGUACAAGCUUUUUGCUCGUCUUAAA [Mat - hsa-mir-208a - Mod of JL - 55] (puzzle: Sensor for hsa-mir-208a)				545	15	
AGUCCAGCCUAAGCUGGACAAAAGCAUGUACAUGAGGAUCACCCAUGUUCAUGUACAAGCUUUUUGCUCGUCUUAAA [Mat - hsa-mir-208a - Mod of JL - 54] (puzzle: Sensor for hsa-mir-208a)				544	15.1	447
AGUCCAGCCUGAGCUGGACAAAAGCAUGUACAUGAGGAUCACCCAUGUCAUGUACAAGCUUUUUGCUCGUCUUAAAU [Mat - hsa-mir-208a - Mod of JL - D22] (puzzle: Sensor for hsa-mir-208a)				585	16.4	584
AGUCCAGCCUGAGCUGGACAAAAGCAUGUACAUGAGGAUCACCCAUGUCAUGUACAAGCUUUUUGCUCGUCUUGAAA [Zipper 46 - 9] (puzzle: Sensor for hsa-mir-208a)				737	16.8	807
AGUCCAGCCUGAGCUGGACAAAAGCAUGUACAUGAGGAUCACCCAUGUCAUGUACAAGUUUUUUGCUCGUCUUAAUA [Zipper 49 - 12] (puzzle: Sensor for hsa-mir-208a)				46.9	11.1	53.1
AGUCCAGCCUGAGCUGGACAAAAGCAUGUACAUGAGGAUCACCCAUGUUAUGUACAAGCUUUUUGCUCGUCUUAAAA [Zipper 46 - 15] (puzzle: Sensor for hsa-mir-208a)				165	13	153
AGUCCAGCCUGAGCUGGACAAAAGCAUGUACAUGAGGAUCACCCAUGUUCAUGUACAAGCUUUUUGCUCGUUUUAAA [Zipper 52 - 8] (puzzle: Sensor for hsa-mir-208a)				523	13.5	546
AGUCCAGCGAAAGCUGGACAAAAGCAUGUACAUGAGGAUCACCCAUGUUCAUGUACAAGUUUUUUGCUCGUUUUAAA [JL mod - D95 - 18] (puzzle: Sensor for hsa-mir-208a)				37.8	10.3	45.8
AGUCCAGCGAAAGCUGGACAAAGGCAUGUACAUGAGGAUCACCCAUGUUCAUGUACAAGCUUUUUGCUCGUCUUAAA [JL mod - D95 - 3] (puzzle: Sensor for hsa-mir-208a)				147	14	194

Sequence	apparent KD of MS2 coat protein (input ligand: FMN 200 uM) [nM]	apparent KD of MS2 coat protein [1] [nM]	apparent KD of MS2 coat protein (input ligand: none) [nM]	apparent KD of MS2 coat protein [2] [nM]	apparent KD of MS2 coat protein [3] [nM]	apparent KD of MS2 coat protein [4] [nM]
AUAAAACAUGAGGAUCACCCAUGUCAACAAAAUCGAGGAUAUGGACAGACUUCGGUCUGUCCAGAAGGCGAAUAAU [salish99_ss1_r3_100] (Eterna round: R96, puzzle: Same State 1)	15.1	12.7	17.4			
AUAAAACAUGAGGAUCACCCAUGUCAACAAAAUCGAGGAUAUGGACAGACUUCGGUCUGUCCAGAAGGCGAAUAAU [salish99_ss1_r3_100] (puzzle: Same State 1)					13.8	
AUAAAACAUGAGGAUCACCCAUGUGGCGCUGACACAGGAUAUCAUGCGGAACUGGACGUAUGAGAAGGGUGAUGCG [Diateedza] (puzzle: Same State 1)				53	216	419
AUAAAUAACACAGGAUAUCCGCACGAGUAGUACGGAGAAGGGUGAACGUCGGCUCUCGCCAACAUGAGGAUCACCCAUGUAAAA [Usesesana] (Eterna round: R96, puzzle: Same State NG 1)	1160	432	734			
AUAAGAAACACAGGAUAUACCGCACUUAACACGGUAGAAGGGUGGGACAUGAGGAUCACCCAUGUGGUCCGGGCGCCGGACCGC [Geenusrior] (Eterna round: R96, puzzle: Same State NG 1)	711	27.8	329			
AUAAGACACAUGAGGAUCACCCAUGUGGCCGUAGUCGGCUCACAGGAUAUCAAGCUACUAGUGCUUGAGAAGGGUGAGACAAGC [Raar Mod] (Eterna round: R96, puzzle: Same State NG 3)	57.3	190	323			
AUAAGUUCGAUGCUCGUCUCUCCGUACAAACAUGAGGAUCACCCAUGUGAUCGGGAAGUAGCCCGGUCAGUAUGGCC [Ordierti] (puzzle: Sensor for hsa-mir-208a)				35.1	24.4	38.5
AUAAGUUCGAUGCUCGUCUCUCCGUACAAACAUGAGGAUCACCCAUGUGAUUGAGCAGUAGCCCAAUCAGUAUGGCC [Tileus] (puzzle: Sensor for hsa-mir-208a)				45.1	23.9	47.9
AUAAGUUCGAUGCUCGUCUCUCCGUACAAACAUGAGGAUCACCCAUGUGAUUGGGCAAUAGCCCAAUCAGUAUGACC [Gemaa] (puzzle: Sensor for hsa-mir-208a)				38.1	26	41.5
AUAGUUGCCGAAGGAUAUGAUGAGGAUCACCCAUCAGAAGGUUGGCUAUUGGGUGGACAUGAGGAUCACCCAUGUCCUUUGGUA (Eterna round: R96, puzzle: Same State NG 1)	95.1	119	147			
AUAUGAGGAGCAGGAUAUGCGGAGAAGAAAGAAGCAGAAGGGCUCAUGGGACGACAUGAGGAUCACCCAUGUGCUCCGCGAUGA [AK SSNG1-V2-4] (Eterna round: R96, puzzle: Same State NG 1)	69.9	29.5	328			
AUAUUCUUCCGCGACACCCACAUGAGGAUCACCCAUGUUGAACAGGAUAUGUAGUUCAUCUGAACACAGAAGGGUUAAAGGAAG [Eternabot solution 28] (Eterna round: R96, puzzle: Same State NG 3)	16.5	16.5	20			
AUCUCUGUGCCGCAGGAUAUACCAACGGCUACAUGAGGAUCACCCAUGUCAUACCGUCGAAAAUGGUAGAAGGGUGUGCACGAGC [Leesmala] (puzzle: Same State 2)				16.4	45.5	61.3
AUGCCAAAAGGAGGAUAUGGAGCCUUAUUGGCUCCAGAAGGCUUGACAUGAGGAUCACCCAUGUGGCAGUGGUCUAAUGACCAC [Eli NG1ss - 43] (Eterna round: R96, puzzle: Same State NG 1)		13.7				
AUGCCAAAGCGAGGAUAUGGAGCCUUAUUGGCUCCAGAAGGUGUGACAUGAGGAUCACCCAUGUGGCAGUGGUCUAAUGACCAC [Eli NG1ss - 41] (Eterna round: R96, puzzle: Same State NG 1)	63.3	64.6	86.7			
AUGGUGCAGGUACAGGAUAUGUUGCUCGUAACAUGAGGAUCACCCAUGUACCUAUGAGAUUAAAUGCAGAAGGGUGCACACCACG [Quorra] (Eterna round: R96, puzzle: Same State 2)	62.8	406	1260			
